Here are results for nine molecules from PMC12141716, “An archaeal nucleoid-associated protein binds an essential motif in DNA replication origins” (Nature Communications, 2025).

The target in data set [1] is UBP (ucm-binding protein), recombinant wild type (Sulfolobus islandicus REY15A) (UniProt F0NFD3). In words: crystal structure; DNA-free UBP, two crystal forms (C2221 and twinned P21 with four dimers in the asymmetric unit); sodium acetate pH 4.8-5.2, PEG6000, 20 °C.
For data set [2], the target named is T1, UBP (Sulfolobus islandicus REY15A, UniProt F0NFD3 1-111).
T1 sequence: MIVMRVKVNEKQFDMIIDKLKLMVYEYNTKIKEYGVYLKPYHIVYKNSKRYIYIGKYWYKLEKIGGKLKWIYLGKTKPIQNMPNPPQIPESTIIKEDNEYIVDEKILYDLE
As to the kind of experiment: EMSA; EMSA: 50 mM K-acetate, 20 mM Tris-acetate, 10 mM Mg-acetate, 1 mM DTT, pH 7.9, 5-10% glycerol, 70 mM NaCl, 800 ng salmon sperm DNA per 10 ul, room temperature 10 min; footprinting same buffer, 4% glycerol, 8000 ng salmon sperm DNA; pull-down 25 mM HEPES pH 7.5, 150 mM NaCl, 10 mM MgCl, 100 uM ZnCl, 10 mM DTT, 48 C. The following applies: protein: recombinant; tags: MBP tag removed by Factor Xa; 3 extra vector residues at N-terminus; chain copies: 2; label: 5'-32P; blunt.

Data set [3] deals with T1, UBP. As to the kind of experiment: EMSA; up to 740 nM UBP; EMSA: 50 mM K-acetate, 20 mM Tris-acetate, 10 mM Mg-acetate, 1 mM DTT, pH 7.9, 5-10% glycerol, 70 mM NaCl, 800 ng salmon sperm DNA per 10 ul, room temperature 10 min; footprinting same buffer, 4% glycerol, 8000 ng salmon sperm DNA; pull-down 25 mM HEPES pH 7.5, 150 mM NaCl, 10 mM MgCl, 100 uM ZnCl, 10 mM DTT, 48 C. The following applies: protein: recombinant; tags: MBP tag removed by Factor Xa; 3 extra vector residues at N-terminus; chain copies: 2; label: 5'-32P.

In the next data set the target is T2, UBP (DNA co-crystal) (Sulfolobus islandicus REY15A, UniProt F0NFD3 1-111).
T2 sequence: T1 sequence
As to the kind of experiment: X-ray crystallography; 1.8 A; EMSA: 50 mM K-acetate, 20 mM Tris-acetate, 10 mM Mg-acetate, 1 mM DTT, pH 7.9, 5-10% glycerol, 70 mM NaCl, 800 ng salmon sperm DNA per 10 ul, room temperature 10 min; footprinting same buffer, 4% glycerol, 8000 ng salmon sperm DNA; pull-down 25 mM HEPES pH 7.5, 150 mM NaCl, 10 mM MgCl, 100 uM ZnCl, 10 mM DTT, 48 C. The settings on record: protein: recombinant; tags: MBP tag removed by Factor Xa; 3 extra vector residues at N-terminus; blunt.

For data set [4], the target named is T1, UBP. In words: EMSA; 0-740 nM UBP; EMSA: 50 mM K-acetate, 20 mM Tris-acetate, 10 mM Mg-acetate, 1 mM DTT, pH 7.9, 5-10% glycerol, 70 mM NaCl, 800 ng salmon sperm DNA per 10 ul, room temperature 10 min; footprinting same buffer, 4% glycerol, 8000 ng salmon sperm DNA; pull-down 25 mM HEPES pH 7.5, 150 mM NaCl, 10 mM MgCl, 100 uM ZnCl, 10 mM DTT, 48 C. The settings on record: protein: recombinant; tags: MBP tag removed by Factor Xa; 3 extra vector residues at N-terminus; chain copies: 2; label: 5'-32P; blunt.

In data set [5] the target is T3, MCM replicative helicase, full-length recombinant (Sulfolobus islandicus REY15A, UniProt F0NF15 1-686).
T3 construct: MCM replicative helicase, Sulfolobus islandicus REY15A, SiRe_1228; The introduction and discussion call archaeal MCM a homohexamer (cited work); also called full-length MCM; recombinant MCM
T3 sequence (looked up): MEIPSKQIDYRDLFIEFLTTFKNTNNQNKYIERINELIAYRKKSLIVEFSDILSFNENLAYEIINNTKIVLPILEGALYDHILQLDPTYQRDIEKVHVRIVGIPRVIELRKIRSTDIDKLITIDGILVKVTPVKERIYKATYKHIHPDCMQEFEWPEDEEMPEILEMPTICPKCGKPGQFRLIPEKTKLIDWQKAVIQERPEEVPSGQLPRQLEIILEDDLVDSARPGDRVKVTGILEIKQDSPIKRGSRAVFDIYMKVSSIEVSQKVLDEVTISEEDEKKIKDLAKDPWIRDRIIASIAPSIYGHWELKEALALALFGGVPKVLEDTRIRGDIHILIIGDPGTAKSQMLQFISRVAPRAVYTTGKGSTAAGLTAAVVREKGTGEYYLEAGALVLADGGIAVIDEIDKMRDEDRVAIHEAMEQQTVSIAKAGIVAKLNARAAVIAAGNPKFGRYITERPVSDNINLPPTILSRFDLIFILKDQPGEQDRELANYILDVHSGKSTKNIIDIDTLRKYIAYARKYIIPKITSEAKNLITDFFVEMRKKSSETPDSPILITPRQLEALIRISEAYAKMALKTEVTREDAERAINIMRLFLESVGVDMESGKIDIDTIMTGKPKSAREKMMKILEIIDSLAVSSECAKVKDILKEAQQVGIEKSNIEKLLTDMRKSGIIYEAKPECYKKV
In words: MCM recruitment (in vitro loading) assay on bead-bound origin DNA; 200 pM DNA on magnetic beads, UBP and/or Orc1-1 E147A 1 µM, 2 mM ATP, 50 °C, MCM 12.9 nM; washes with binding buffer and with 500 mM potassium acetate; western blot. The settings on record: both partners purified.

Data set [6] has as its target T1, UBP. As to the kind of experiment: EMSA; 370 nM UBP; EMSA: 50 mM K-acetate, 20 mM Tris-acetate, 10 mM Mg-acetate, 1 mM DTT, pH 7.9, 5-10% glycerol, 70 mM NaCl, 800 ng salmon sperm DNA per 10 ul, room temperature 10 min; footprinting same buffer, 4% glycerol, 8000 ng salmon sperm DNA; pull-down 25 mM HEPES pH 7.5, 150 mM NaCl, 10 mM MgCl, 100 uM ZnCl, 10 mM DTT, 48 C. The following applies: protein: recombinant; tags: MBP tag removed by Factor Xa; 3 extra vector residues at N-terminus; chain copies: 2; label: 5'-32P; blunt.

The next data set has as its target T4, MCM-NT (Sulfolobus islandicus REY15A, UniProt F0NF15 1-266).
T4 sequence: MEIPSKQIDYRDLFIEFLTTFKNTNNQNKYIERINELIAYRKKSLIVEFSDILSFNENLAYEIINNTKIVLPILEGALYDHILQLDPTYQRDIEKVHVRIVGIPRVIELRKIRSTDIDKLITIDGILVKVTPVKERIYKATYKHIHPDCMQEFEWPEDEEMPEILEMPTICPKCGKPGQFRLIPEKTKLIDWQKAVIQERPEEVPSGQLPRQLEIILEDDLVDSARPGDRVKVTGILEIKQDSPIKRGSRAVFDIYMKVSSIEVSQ
In words: EMSA; without UBP; EMSA: 50 mM K-acetate, 20 mM Tris-acetate, 10 mM Mg-acetate, 1 mM DTT, pH 7.9, 5-10% glycerol, 70 mM NaCl, 800 ng salmon sperm DNA per 10 ul, room temperature 10 min; footprinting same buffer, 4% glycerol, 8000 ng salmon sperm DNA; pull-down 25 mM HEPES pH 7.5, 150 mM NaCl, 10 mM MgCl, 100 uM ZnCl, 10 mM DTT, 48 C. The settings on record: protein: recombinant; tags: C-terminal 6xHis; chain copies: 6; label: 5'-32P; blunt.

The next data set addresses T5, MCM (UniProt F0NF15 1-686).
T5 sequence: T3 sequence (looked up)
The description is as above. The settings on record: protein: recombinant; chain copies: 6; label: 5'-32P; blunt.

For another data set, the target named is T6, UBP;MCM-NT (Sulfolobus islandicus REY15A;Sulfolobus …, UniProt F0NFD3;F0NF15 1-111;1-266, |).
T6 sequence 1: T1 sequence
T6 sequence 2: T4 sequence
As to the kind of experiment: EMSA; 370 nM UBP; preferred over naked DNA; EMSA: 50 mM K-acetate, 20 mM Tris-acetate, 10 mM Mg-acetate, 1 mM DTT, pH 7.9, 5-10% glycerol, 70 mM NaCl, 800 ng salmon sperm DNA per 10 ul, room temperature 10 min; footprinting same buffer, 4% glycerol, 8000 ng salmon sperm DNA; pull-down 25 mM HEPES pH 7.5, 150 mM NaCl, 10 mM MgCl, 100 uM ZnCl, 10 mM DTT, 48 C. The settings on record: protein: recombinant;recombinant; tags: MBP tag removed by Factor Xa; 3 extra vector residues at N-terminus;C-terminal 6xHis; label: 5'-32P; blunt.

A further data set addresses T7, UBP;MCM (Sulfolobus islandicus REY15A;Sulfolobus …, UniProt F0NFD3;F0NF15 1-111;1-686, |).
T7 sequence 1: T1 sequence
T7 sequence 2: T3 sequence (looked up)
The description is as above. The following applies: protein: recombinant;recombinant; tags: MBP tag removed by Factor Xa; 3 extra vector residues at N-terminus;; label: 5'-32P; blunt.

Take “UBP (ucm-binding protein), recombinant wild type (from UniProt F0NFD3 1-111)”: in data set [1], the stoichiometry N was found to be 2.

B1: ucm 50 bp WT (P5/P6) (dsDNA)
DNA 1: TTGTTATAATTAGATAACCATTATACAAAAGAATTGTATAAGAATGAAAT
DNA 2: ATTTCATTCTTATACAATTCTTTTGTATAATGGTTATCTAATTATAACAA
Consider B1, for which the binding result in the data set with UBP [2] is “binds”.
On to AACCATTATACAAAAGAATT (ssDNA) [ucm 20 nt top strand (P17)], for which the binding result in the data set with UBP [3] is “no binding”.
The same measure, in the same setting: the same measure for AATTCTTTTGTATAATGGTT (ssDNA) [ucm 20 nt lower strand (P18)]: “no binding”.

B2: 12 bp ucm crystal DNA (P49/P50) (dsDNA)
DNA 1: ATTATACAAAAG
DNA 2: CTTTTGTATAAT
modifications: 5-bromo-dU at positions 2 and 5 of strand 1 and 2 and 9 of strand 2 (written T)
Consider B2, for which the binding result with UBP (DNA co-crystal) is listed as “binds”.

B3: ucm 20 bp (P17/P18) (dsDNA)
DNA 1: AACCATTATACAAAAGAATT
DNA 2: AATTCTTTTGTATAATGGTT
As for B3, in the data set with UBP [4], the binding result is “binds”.

B4: scr 50 bp (P7/P8) (dsDNA)
DNA 1: ATAATATTTGAAATTAAATGCTTAGTGAATATACGTACAGAATAAAAATT
DNA 2: AATTTTTATTCTGTACGTATATTCACTAAGCATTTAATTTCAAATATTAT
As to B4, in the data set with UBP [2], the binding result is given as “no binding”.

B5: Orc1-1 E147A (Walker B mutant) (natural protein, Sulfolobus islandicus REY15A, UniProt F0NBP2 1-397, looked up)
chain: MSDIIDEVISSFRTSSIFVNREYLMPDYIPDELPHRENQIRKIASILAPLYREEKPNNIFIYGLTGTGKTAVVKFVLSRFHKKFLGKFKYIYINTRQIDTPYRVLADLLESLDVKVPFTGLSIAELYRRLVKAIREYDSQVVIVLDAIDAFVKRYNDDILYKLSRINSEVNRSKVSFIGITNDVKFVDLLDPRVKSSLSEEEIVFPPYNAEELEDILTKRAQMAFRPGVLPDNVIRLCAALAAREHGDARRALDLLRVAGEIAERLKDSKVKEEYVHLAKEEIERDRVRDIILTLPFHSKLVLTAVASMSSEDNVVLTTGAVYETYLNICKKLGVEPITQRRVSDIINELDMVGILRAKVVNRGRYGKTKEIGLAVDKNIIVKSLIESDSRFADLWG
notes: Orc1-1 replication initiator, Sulfolobus islandicus REY15A, SiRe_1740
Turning to B5, the binding result in [5] is on record as “binds”.

B6: oriC1 140 bp (P21/P22) (dsDNA)
DNA 1: TATTTTGAGCAACATTTTGTTATAATTAGATAACCATTATACAAAAGAATTGTATAAGAATGAAATCAAAGCTTATTTTATGTCACTAGAATCTCCAAATGAAATACTGGGGTAGGCCTTGTTTATGACACAACTTACAT
DNA 2: ATGTAAGTTGTGTCATAAACAAGGCCTACCCCAGTATTTCATTTGGAGATTCTAGTGACATAAAATAAGCTTTGATTTCATTCTTATACAATTCTTTTGTATAATGGTTATCTAATTATAACAAAATGTTGCTCAAAATA
B6: the binding result with UBP [6], with MCM-NT, in the data set with MCM, with UBP;MCM-NT and with UBP;MCM was “binds” in each case.
